Data reported in patent US20230349919A1 (Regeneron, published 2023).
Where a chain is given by its changes, count along the chain named.

How the values were obtained:
[1] = target: T1, human IL-4Rα (hIL-4Rα) monomeric protein (human, UniProt P24394 26-232, limits assumed); assay: Biacore (SPR)
T1 construct: also called hIL-4Rα antigen; barcoded hIL-4Rα

[2] = target: T1, human IL-4Rα (hIL-4Rα) monomeric protein; assay: barcoded-antigen count on source cell (scRNA-seq)
[3] = target: T1, human IL-4Rα (hIL-4Rα) monomeric protein; assay: Biacore (SPR); negative log10 of Kd

B1: Table 1 Line # 1 antibody (BM_Plasma_cell) (antibody, human IgG4, V domains shown)
VH: EVQLVESGGGLVKPGGSLRLSCAASGFTFSSYSMNWVRQAPGKGLEWVSSISSSSSYIYYADSVKGRFTISRDNAKNSLYLQMNSLRAEDTAVYYCASLAARPFWGQGTMVTVSS
VL: DIQMTQSPSSVSASVGDRVTITCRASQGISSWLAWYQQKPGRAPKLLIYAASSLQSGVPSRFSGSGSGTDFTLTISSLQPEDFATYYCQQANSFPLTFGGGTKVEIK
notes: Cloned with human IgG4/human Igk constants for Kd; barcode counts are of the source cell's own IgG
[1]
  Kd: 416 nM
[2]
  REGN560.L15_ab_raw: 11200 counts
[3]
  negLog10Kd: 6.38

B2: Table 1 Line # 13 antibody (BM_Plasma_cell) (antibody, human IgG4, V domains shown)
VH: EVQLVESGGEMIRPGGSLRLSCAASGFIFDDYGMSWIRQAPGKGLEWVSGINWNGGHTGYSDSVKGRFTISRDNAKNSLYLQMNSLRAEDTALYHCVRDSSSSWYGVFDYWGQGTLVTVSS
VL: DIQMTQSPSSLSASVGDRVTITCRASQGISNSLAWYQQKPGTVPKLLIFAASTLLSGIPSRFSGGGSGTDFTLTISSLQPEDVATYYCQNYNSAPRTFGQGTKVEIK
notes: as for B1
[1]
  Kd: 58.2 nM
[2]
  REGN560.L15_ab_raw: 2930 counts
[3]
  negLog10Kd: 7.24

B3: Table 1 Line # 35 antibody (SP_B_cell) (antibody, human IgG4, V domains shown)
VH: EVQLVESGGGLVKPGGSLRLSCAASGFTFSSYSMNWVRQAPGKGLEWVSSISSSSSYIYYADSVKGRFTISRDNAKNSLYLQMNSLRAEDTAVYYCARDRSSSPLENWGQGTLVTVSS
VL: B1 VL with R42K, L96I, G100Q, K103R, V104L
notes: as for B1
[1]
  Kd: 29.3 nM
[2]
  REGN560.L15_ab_raw: 6710 counts
[3]
  negLog10Kd: 7.53

B4: Table 1 Line # 37 antibody (SP_B_cell) (antibody, human IgG4, V domains shown)
VH: QVHLVESGGDVVQPGRSLRLSCAASGFTFSYYGMHWVRQAPFKGLEWVAVIWYDGSNKYYADSVKGRFTITRDNSKNTVYLQMNSLRAEDTAIYYCARWGGFGVTGTHLDYWGQGTLVTVSS
VL: DIQLTQSPSLLSASVGDRVTITCWASQDIAGHFAWYQQKPGTVPKLLIYAISTLDSGVPSRFSGSRSGTEFTLTISSLQPEDFATYYCQHLNSYPYTFGQGTKLEIK
notes: as for B1
[1]
  Kd: 197 nM
[2]
  REGN560.L15_ab_raw: 6230 counts
[3]
  negLog10Kd: 6.71

B5: Table 1 Line # 7 antibody (BM_Plasma_cell) (antibody, human IgG4, V domains shown)
VH: EVQLVESGGGLVQPGRSLRLSCAASGFTFDDYAMHWVRQAPGKGLEWVSGISWNGASIGYADSLKGRFTISRDNAKNSLYLQMNSLRSEDTALFYCARDYSSAWYGYFDYWGQGTLVTVSS
VL: B2 VL with G28D, S32Y, T42K, F49Y, L55Q, I58V, G65S, A94V
notes: as for B1
[1]
  Kd: 15.5 nM
[2]
  REGN560.L15_ab_raw: 4140 counts
[3]
  negLog10Kd: 7.81

B6: Table 1 Line # 11 antibody (BM_Plasma_cell) (antibody, human IgG4, V domains shown)
VH: B5 VH with G55S, A56G, L64V, S88A, F94Y, Y110S
VL: B2 VL with S30N, S32Y, T42K, V43I, A50T, L55Q, I58V, G65S, S76N, A94V
notes: as for B1
[1]
  Kd: 27.5 nM
[2]
  REGN560.L15_ab_raw: 3210 counts
[3]
  negLog10Kd: 7.56

B7: Table 1 Line # 15 antibody (BM_Plasma_cell) (antibody, human IgG4, V domains shown)
VH: B5 VH with G10A, T28A, I58L
VL: B2 VL with G28D, S32Y, T42K, F49Y, L55Q, I58V, G65S, E81Q, A94V
notes: as for B1
[1]
  Kd: 19.9 nM
[2]
  REGN560.L15_ab_raw: 2580 counts
[3]
  negLog10Kd: 7.7

B8: Table 1 Line # 40 antibody (SP_Plasma_cell) (antibody, human IgG4, V domains shown)
VH: QVQLQESGPGLVKPSETLSLTCTISGGSISTYYWSWIRQPPGKGLEWIGYIYYSGNTNYNPSLKSRVTISVDTSKNQFSLKLNSVTAADTAVYYCARHRGSYVYGMDVWGQGTTVTVSS
VL: DIQMTQSPSSLSASLVDRVTITCRASQTISSYLNWYQQKPGKAPKLLIYGASILQSGVPSRFSGSGSGTDFTLTISSLQPEDHAVYFCQQSYSSPTFGGGTKVEIK
notes: as for B1
[1]
  Kd: 118 nM
[2]
  REGN560.L15_ab_raw: 5520 counts
[3]
  negLog10Kd: 6.93

B9: Table 1 Line # 2 antibody (BM_Plasma_cell) (antibody, human IgG4, V domains shown)
VH: EVRLVESGGGLVQPGRSLRLSCAASGFTFDDYAMHWVRQAPGRGLEWVSGISWKGDALGYADSVKGRFTISRDNAKNSLYLQMSSLRAEDTALYYCAKDTGSYHYYYGLDVWGQGTTVAVSS
VL: DIQMTQSPSSLSASVGDRVTITCRASQGIRTDLGWYQQKPGKAPKRLIYAASNLHGGVPSRFSGTGSGTDFTLTISSLQPEDFATFFCLQHYSYPLTFGGGTKVEIK
notes: as for B1
[1]
  Kd: 161 nM
[2]
  REGN560.L15_ab_raw: 6540 counts
[3]
  negLog10Kd: 6.79

B10: Table 1 Line # 41 antibody (SP_Plasma_cell) (antibody, human IgG4, V domains shown)
VH: B9 VH with R3Q, A119T
VL: B9 VL with T31N, K45E, H55Q, G56S, T65S, D70E, F87Y
notes: as for B1
[1]
  Kd: 150 nM
[2]
  REGN560.L15_ab_raw: 2460 counts
[3]
  negLog10Kd: 6.82

B11: Table 1 Line # 42 antibody (SP_Plasma_cell) (antibody, human IgG4, V domains shown)
VH: EVQLLESGGGLVQPGGSLRLSCAASGFTFISYTLSWVRQAPGKGLEWVSAISGSGGSTYYVDSVKGRFTISRDNSRNTLYLQMNSLRAEDTAVYYCAKDLGSTVYWGQGTLVTVSS
VL: not shown
notes: as for B1
[1]
  Kd: 127 nM
[2]
  REGN560.L15_ab_raw: 2080 counts
[3]
  negLog10Kd: 6.9

B12: Table 1 Line # 16 antibody (BM_Plasma_cell) (antibody, human IgG4, V domains shown)
VH: EVQLVESGGGLVQPGRSLRLSCAASGFTFDDYGMHWVRQAPGKGLEWVSGISWNSGHIGYADSVKGRFTISRDNAKNSLNLQMNSLRAEDTALYYCAKDISSSWYGYFDLWGRGTLVTVSS
VL: B2 VL with S32F, Y36F, T42K, F49Y, L55Q, I58V, G65S, N90E
notes: as for B1
[1]
  Kd: 8.04 nM
[2]
  REGN560.L15_ab_raw: 2370 counts
[3]
  negLog10Kd: 8.09

B13: Table 1 Line # 34 antibody (SP_B_cell) (antibody, human IgG4, V domains shown)
VH: EVQLVASGGDLVQPGRSLRLSCAASGFTFDDFGMHWVRQAPGKGLEWVSGISWNGGHMGYAASVKGRFTMSRDNAKNSLYLQMNSLRVEDTALYYCVKEFSSSWYGFFDLWGRGTLVTVSS
VL: DIQMTQSPSSLSASVGDRVTITCRASQGLGNSVAWYQQKPGQIPRLLISAAASLQSGVPSRFSGSGSGTDFTLTISSLQPEDVATYYCQNYNSAPRTFGQGTNVEIK
notes: as for B1
[1]
  Kd: 34.2 nM
[2]
  REGN560.L15_ab_raw: 6890 counts
[3]
  negLog10Kd: 7.47

B14: Table 1 Line # 46 antibody (SP_Plasma_cell) (antibody, human IgG4, V domains shown)
VH: B13 VH with V5E, T28I, M58I, A62D, M70I, V88A, V97A, F100H, L110F
VL: B13 VL with G30S, S77R
notes: as for B1
[1]
  Kd: 49.2 nM
[2]
  REGN560.L15_ab_raw: 1520 counts
[3]
  negLog10Kd: 7.31

B15: Table 1 Line # 49 antibody (SP_Plasma_cell) (antibody, human IgG4, V domains shown)
VH: EVHLLESGGGFIQPGGSLRLSCAASGFTFSTYAMNWVRLAPGKGLEWVSTISGSGGFTSYTDSVQGRFTISRDNSKNKLYLQINNLTAEDTAVYYCAKDRRIVGATGFDYWGQGALVTVSS
VL: DIQMTQSPSSLSASAGDRVTITCRASQSISSYLNWYQQKPGKAPKLLIYAASSLQSGVPSRFSGSGSGTDFTLTISSLQPEDSATYYCQQSYGFHTFGQGTRLEIK
notes: as for B1
[1]
  Kd: 132 nM
[2]
  REGN560.L15_ab_raw: 1200 counts
[3]
  negLog10Kd: 6.88

B16: Table 1 Line # 18 antibody (BM_Plasma_cell) (antibody, human IgG4, V domains shown)
VH: EVQLVQSGAEVKKPGESLKISCKGSGYRFTTNWIGWVRQMPGKGLEWMGIIYPDDSDTRYSPSFQGQVTISADKSINTAYLHWNSLKSSDTAIYYCARGANWFDPWGQGTLVTVSS
VL: EIVLTQSPGILSLSPGKRATLSCRASQSVSSNFLAWYQQKPGQAPRLLIYGTSSRANGIPDRFSGSGSGTDFTLTISGLEPEDFAEYYCQQYGSSVTFGQGTRLEIK
notes: as for B1
[1]
  Kd: 41.4 nM
[2]
  REGN560.L15_ab_raw: 2170 counts
[3]
  negLog10Kd: 7.38

B17: Table 1 Line # 53 antibody (SP_Plasma_cell) (antibody, human IgG4, V domains shown)
VH: EIQLVESGGGLVQPGRSLRLSCAASGFTFDDYAMHWVRQAPGKGLEWVSGINWNNGSLGYADSVKGRFTISRDNAKNSLYLQMNSLRTEDTALYYCVKDTGSWASYYGMDVWGHGTTVTVSS
VL: DIQMTQSPSSLSASIGDRVTITCRASQGIRNDLGWYQQKPGKAPKRLIYAASSLQSGVPSRFSGSGSGTEFTLTISSLQPEDFATYYCLQHNSYPYTFGQGTKLEIK
notes: as for B1
[1]
  Kd: 247 nM
[2]
  REGN560.L15_ab_raw: 818 counts
[3]
  negLog10Kd: 6.61

B18: Table 1 Line # 54 antibody (SP_Plasma_cell) (antibody, human IgG4, V domains shown)
VH: QVQLVQSGAEVKKPGASVKVSCKASGYTFTNYGISWVRQAPGQGLEWMGWISVYNGNTNYAQKLQGRVTMTTDTSTSTAYMEVRSLRSDDTAVYYCARGVNWNYVFDYWGQGTLVTVSS
VL: B17 VL with I15V, A50V, A51V, Y96W, L104V
notes: as for B1
[1]
  Kd: 13.5 nM
[2]
  REGN560.L15_ab_raw: 815 counts
[3]
  negLog10Kd: 7.87

B19: Table 1 Line # 31 antibody (SP_B_cell) (antibody, human IgG4, V domains shown)
VH: B5 VH with G55S, A56G, S57N, L64V, K76N, S88A, F94Y, R98K
VL: not shown
notes: as for B1
[1]
  Kd: 133 nM
[2]
  REGN560.L15_ab_raw: 8520 counts
[3]
  negLog10Kd: 6.88

B20: Table 1 Line # 4 antibody (BM_Plasma_cell) (antibody, human IgG4, V domains shown)
VH: B12 VH with Y32F, G33A, H57S, N80Y, A97T, I100S
VL: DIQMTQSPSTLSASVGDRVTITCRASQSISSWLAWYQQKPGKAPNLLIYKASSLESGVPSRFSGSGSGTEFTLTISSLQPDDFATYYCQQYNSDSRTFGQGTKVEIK
notes: as for B1
[1]
  Kd: 158 nM
[2]
  REGN560.L15_ab_raw: 5050 counts
[3]
  negLog10Kd: 6.8

B21: Table 1 Line # 19 antibody (BM_Plasma_cell) (antibody, human IgG4, V domains shown)
VH: B5 VH with Y32F, A40E, A56G, S57N, L64V, S88A, L93F, F94Y, R98K, Y100V
VL: DIQMTQSPSTLSASVGDRVTITCRASQSVSSWLAWYQQKPGKAPKLLIYKASSLESGVPLRFSGSGSGTEFTLTISSLQPDDFATYYCQVYNSDSRTFGQGTKVEIK
notes: as for B1
[1]
  Kd: 12.1 nM
[2]
  REGN560.L15_ab_raw: 2060 counts
[3]
  negLog10Kd: 7.92

B22: Table 1 Line # 21 antibody (SP_B_cell) (antibody, human IgG4, V domains shown)
VH: EVQLVESGGGVVRPGGSLRLSCAASGFTFDDYGMSWVRQAPGKGLEWVSGINWNGGSTGYADSVKGRFTMSRDNAKKSLYLQMNSLRAEDTAFYHCARDDSSSLYGYFQHWGQGTLVTVSS
VL: B2 VL with N31I, S32Y, T42K, F49Y, L55Q, I58V, G65S
notes: as for B1
[1]
  Kd: 177 nM
[2]
  REGN560.L15_ab_raw: 17400 counts
[3]
  negLog10Kd: 6.75

B23: Table 1 Line # 24 antibody (SP_B_cell) (antibody, human IgG4, V domains shown)
VH: EVQLVESGGDLVQPGTSLRLSCAASGFTFDDYAMHWVRQTPGQGLEWVSGINWNSGTIGYADSVKGRFTISRDNAKNSLFLQMNSLRAEDSAFYYCTKDIGGSYYASDFWGQGTLVTVSS
VL: DIQMTQSPSSLSASVGDRVTITCRASQRISTDLNWYQQKSGKAPNLLIYGASSLQSGVPSRFSGSGSGTDFILTISTLQPEDFATYYCQQSYSTPFTFGPGTKVDIK
notes: as for B1
[1]
  Kd: 207 nM
[2]
  REGN560.L15_ab_raw: 10800 counts
[3]
  negLog10Kd: 6.68
